Among the data in paper PMC5111854 are Kd, dH and stoichiometry N values, retold here.

pKd: −log10 of the molar value.

Assay [1] has as its target Cas5c (Desulfovibrio vulgaris str. Hildenborough). The experiment in a line: ITC. For orientation: ITC needs no label: the signal is the heat of the interaction.
Assay [2] has as its target Cas7 (Desulfovibrio vulgaris str. Hildenborough). Kind of assay: ITC.

What is called pKd is −log10 of the Kd, conventionally taken in molar units. High values mean a low Kd, low ones a high Kd. One may read the stoichiometry N as the number of molecules, sites or subunits per partner or assembly. Cas7 (natural protein): in assay [1], the pKd is 5.42, the dH was determined as 5.1 kcal/mol and the stoichiometry N came to 0.59.
For Cas8c (natural protein), in assay [2], the pKd was 5.22 and the dH was found to be 5.2 kcal/mol. Moreover, in assay [1], the pKd is 5.41, the dH came out at 4.8 kcal/mol and the stoichiometry N came out at 0.57.
